Data as given in article PMC9194504, “Chondroitin Sulfates Control Invasiveness of the Basal-Like Breast Cancer Cell Line MDA-MB-231 Through ROR1” (Frontiers in Oncology, 2022).

Target: T1, Recombinant human ROR1-Fc chimera (human, UniProt Q01973 30-406)
T1 construct: receptor tyrosine kinase-like orphan receptor 1 (ROR1), human; recombinant ROR1-Fc chimera, R&D Systems Cat. No. 9490-RO; also called receptor tyrosine kinase-like orphan receptor 1; recombinant ROR1; source: bought: R&D Systems (Cat. No. 9490-RO)
Experiment: SPR; Biacore X100; ROR1-Fc amine-coupled on a CM5 chip (~3,200 RU); protein analyte premixed with CS-E (CS-E:protein molar ratio 7:1), 30 μl/min, 120 s, dissociation 130 s, 25°C; 50 mM Tris-HCl pH 7.5
Conditions: both partners purified

T1 sequence (Q01973 30-406, change not shown): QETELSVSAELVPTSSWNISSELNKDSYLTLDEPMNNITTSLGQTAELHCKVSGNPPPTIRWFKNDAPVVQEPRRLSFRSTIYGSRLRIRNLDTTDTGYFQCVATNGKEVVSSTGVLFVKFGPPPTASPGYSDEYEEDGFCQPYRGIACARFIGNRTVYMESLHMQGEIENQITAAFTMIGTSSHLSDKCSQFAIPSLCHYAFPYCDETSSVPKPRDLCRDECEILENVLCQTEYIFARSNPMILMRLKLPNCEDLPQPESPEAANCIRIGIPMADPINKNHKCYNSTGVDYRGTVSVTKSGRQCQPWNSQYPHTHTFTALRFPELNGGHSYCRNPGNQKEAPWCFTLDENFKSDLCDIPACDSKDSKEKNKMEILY

B1: recombinant human DKK1 (ligand, UniProt O94907 32-266, looked up)
chain: TLNSVLNSNAIKNLPPPLGGAAGHPGSAVSAAPGILYPGGNKYQTIDNYQPYPCAEDEECGTDEYCASPTRGGDAGVQICLACRKRRKRCMRHAMCCPGNYCKNGICVSSDQNHFRGEIEETITESFGNDHSTLDGYSRRTTLSSKMYHTKGQEGSVCLRSSDCASGLCCARHFWSKICKPVLKEGQVCTKHRRKGSHGLEIFQRCYCGEGLSCRIQKDHHQASNSSRLHTCQRH
notes: Dickkopf-1 (DKK1), human, recombinant, R&D Systems Cat. No. 5439-DK/CF; also called Dickkopf-1; source: bought: R&D Systems (Cat. No. 5439-DK/CF)
Q: Does B1 bind?
A: Result: binds
